Results reported in patent US20100129369A1 (Eli Lilly, published 2010).

What was measured:
RON-ECD-Fc [1] = biological target: T1, RON-ECD-Fc (human, UniProt Q04912 25-957); assay: ELISA, coated ECD-Fc, antibody 77.160 ng/mL
T1 construct: extracellular domain; Bought reagent; not shown: Fc part of the bought fusion
T1 sequence (looked up): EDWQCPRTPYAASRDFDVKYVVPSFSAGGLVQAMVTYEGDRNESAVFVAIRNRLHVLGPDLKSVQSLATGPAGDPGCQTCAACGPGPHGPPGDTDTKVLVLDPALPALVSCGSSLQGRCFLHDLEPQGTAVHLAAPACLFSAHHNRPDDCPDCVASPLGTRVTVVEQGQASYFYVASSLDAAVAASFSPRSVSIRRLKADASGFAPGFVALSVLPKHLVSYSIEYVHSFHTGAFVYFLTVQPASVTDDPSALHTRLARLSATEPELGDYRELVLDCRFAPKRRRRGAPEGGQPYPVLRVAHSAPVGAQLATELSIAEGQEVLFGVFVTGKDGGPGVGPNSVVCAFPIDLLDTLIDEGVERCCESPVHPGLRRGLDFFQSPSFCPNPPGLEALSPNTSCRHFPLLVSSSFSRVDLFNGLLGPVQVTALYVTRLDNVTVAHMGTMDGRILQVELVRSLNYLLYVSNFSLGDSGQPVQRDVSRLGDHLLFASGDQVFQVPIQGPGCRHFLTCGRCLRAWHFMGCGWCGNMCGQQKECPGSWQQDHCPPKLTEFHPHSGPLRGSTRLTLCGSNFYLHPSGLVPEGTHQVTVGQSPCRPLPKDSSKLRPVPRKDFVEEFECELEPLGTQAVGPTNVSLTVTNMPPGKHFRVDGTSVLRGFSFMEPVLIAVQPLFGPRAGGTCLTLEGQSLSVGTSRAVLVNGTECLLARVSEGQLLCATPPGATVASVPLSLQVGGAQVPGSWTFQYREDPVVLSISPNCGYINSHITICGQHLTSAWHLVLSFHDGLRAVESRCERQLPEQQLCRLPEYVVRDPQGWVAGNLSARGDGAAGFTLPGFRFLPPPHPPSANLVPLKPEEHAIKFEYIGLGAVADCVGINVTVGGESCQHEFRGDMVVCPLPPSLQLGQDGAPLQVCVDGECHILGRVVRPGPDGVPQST
Protocol: (§1) Wells of 96-well EIA/RIA high binding plates (Costar, #2592) are coated with 100 μL of 1 μg/mL human c-Met extracellular domain (ECD)-Fc-Flis fusion (SEQ ID NO:72), RON-ECD-Fc (R&D Systems, #1947-MS), or PlexinA2-ECD-Fc (Abnova, Taipei, Taiwan #H00005362-P01) in coating buffer (BioFX Labs, # COAT-1000-01) overnight at 4° C. […] After the plates are washed, 100 μL/well of substrate solution (BioFx, #TMBW-1000-01) are added and the plates are incubated for 10 min. at room temperature. 100 μL/well of stop solution (BioFx, # LSTP-1000-01) are added to stop the reaction. The colorimetric signals are developed and read at 450 nm using a SpectraMax 190 plate reader (Molecular Devices, Sunnyvale, Calif.). c-Met antibody binding to c-Met, RON and PlexinA2 ECDs is proportional to color signal production.

PlexinA2-ECD-Fc [2] = biological target: T2, PlexinA2-ECD-Fc (human, UniProt O75051 35-1237); assay: ELISA, coated ECD-Fc, antibody 0.357 ng/mL
T2 construct: extracellular domain; Bought reagent
T2 sequence (looked up): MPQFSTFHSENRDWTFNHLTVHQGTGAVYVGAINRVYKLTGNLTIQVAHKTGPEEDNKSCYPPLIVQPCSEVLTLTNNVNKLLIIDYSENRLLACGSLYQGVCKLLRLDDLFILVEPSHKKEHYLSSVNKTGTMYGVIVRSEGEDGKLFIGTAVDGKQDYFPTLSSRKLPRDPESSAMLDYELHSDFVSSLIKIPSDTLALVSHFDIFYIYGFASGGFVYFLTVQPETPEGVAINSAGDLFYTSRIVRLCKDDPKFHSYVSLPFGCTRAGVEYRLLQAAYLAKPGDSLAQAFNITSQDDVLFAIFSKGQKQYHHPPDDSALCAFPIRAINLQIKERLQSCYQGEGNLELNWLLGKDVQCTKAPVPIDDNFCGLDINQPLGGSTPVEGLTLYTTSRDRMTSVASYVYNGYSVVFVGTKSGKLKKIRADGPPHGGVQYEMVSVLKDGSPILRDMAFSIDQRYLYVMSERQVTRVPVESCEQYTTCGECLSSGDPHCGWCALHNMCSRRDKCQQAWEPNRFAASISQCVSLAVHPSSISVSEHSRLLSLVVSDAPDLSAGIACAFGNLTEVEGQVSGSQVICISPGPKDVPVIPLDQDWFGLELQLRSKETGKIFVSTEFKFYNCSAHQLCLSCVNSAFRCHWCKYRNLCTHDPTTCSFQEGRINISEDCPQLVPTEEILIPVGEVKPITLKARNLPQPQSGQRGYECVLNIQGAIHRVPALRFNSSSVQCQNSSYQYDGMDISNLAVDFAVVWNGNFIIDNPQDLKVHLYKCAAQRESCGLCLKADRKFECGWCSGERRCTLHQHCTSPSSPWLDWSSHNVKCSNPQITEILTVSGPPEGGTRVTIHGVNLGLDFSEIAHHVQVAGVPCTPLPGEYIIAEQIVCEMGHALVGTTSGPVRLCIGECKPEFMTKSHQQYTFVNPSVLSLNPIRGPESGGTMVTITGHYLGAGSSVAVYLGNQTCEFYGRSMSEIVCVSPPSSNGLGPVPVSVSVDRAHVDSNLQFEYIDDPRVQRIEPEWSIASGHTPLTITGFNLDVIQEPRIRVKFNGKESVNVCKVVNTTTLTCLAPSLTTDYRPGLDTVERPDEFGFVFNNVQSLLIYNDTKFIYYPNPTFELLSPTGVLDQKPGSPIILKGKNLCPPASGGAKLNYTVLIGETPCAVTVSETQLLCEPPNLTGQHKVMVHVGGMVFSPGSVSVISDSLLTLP

RON-ECD-Fc [3] = biological target: T1, RON-ECD-Fc; assay: ELISA, coated ECD-Fc, antibody 0.357 ng/mL
PlexinA2-ECD-Fc [4] = biological target: T2, PlexinA2-ECD-Fc; assay: ELISA, coated ECD-Fc, antibody 2.143 ng/mL
Protocol: as §1

Human c-Met-Flis-Fc ECD = biological target: T3, Human c-Met-Flis-Fc ECD (human); assay: ELISA, coated ECD-Fc, antibody 2.143 ng/mL
T3 construct: also called human c-Met extracellular domain (ECD)-Fc-Flis fusion; Human cMet-ECD-Fc-Flis
T3 sequence (chain, as listed by the source limits assumed): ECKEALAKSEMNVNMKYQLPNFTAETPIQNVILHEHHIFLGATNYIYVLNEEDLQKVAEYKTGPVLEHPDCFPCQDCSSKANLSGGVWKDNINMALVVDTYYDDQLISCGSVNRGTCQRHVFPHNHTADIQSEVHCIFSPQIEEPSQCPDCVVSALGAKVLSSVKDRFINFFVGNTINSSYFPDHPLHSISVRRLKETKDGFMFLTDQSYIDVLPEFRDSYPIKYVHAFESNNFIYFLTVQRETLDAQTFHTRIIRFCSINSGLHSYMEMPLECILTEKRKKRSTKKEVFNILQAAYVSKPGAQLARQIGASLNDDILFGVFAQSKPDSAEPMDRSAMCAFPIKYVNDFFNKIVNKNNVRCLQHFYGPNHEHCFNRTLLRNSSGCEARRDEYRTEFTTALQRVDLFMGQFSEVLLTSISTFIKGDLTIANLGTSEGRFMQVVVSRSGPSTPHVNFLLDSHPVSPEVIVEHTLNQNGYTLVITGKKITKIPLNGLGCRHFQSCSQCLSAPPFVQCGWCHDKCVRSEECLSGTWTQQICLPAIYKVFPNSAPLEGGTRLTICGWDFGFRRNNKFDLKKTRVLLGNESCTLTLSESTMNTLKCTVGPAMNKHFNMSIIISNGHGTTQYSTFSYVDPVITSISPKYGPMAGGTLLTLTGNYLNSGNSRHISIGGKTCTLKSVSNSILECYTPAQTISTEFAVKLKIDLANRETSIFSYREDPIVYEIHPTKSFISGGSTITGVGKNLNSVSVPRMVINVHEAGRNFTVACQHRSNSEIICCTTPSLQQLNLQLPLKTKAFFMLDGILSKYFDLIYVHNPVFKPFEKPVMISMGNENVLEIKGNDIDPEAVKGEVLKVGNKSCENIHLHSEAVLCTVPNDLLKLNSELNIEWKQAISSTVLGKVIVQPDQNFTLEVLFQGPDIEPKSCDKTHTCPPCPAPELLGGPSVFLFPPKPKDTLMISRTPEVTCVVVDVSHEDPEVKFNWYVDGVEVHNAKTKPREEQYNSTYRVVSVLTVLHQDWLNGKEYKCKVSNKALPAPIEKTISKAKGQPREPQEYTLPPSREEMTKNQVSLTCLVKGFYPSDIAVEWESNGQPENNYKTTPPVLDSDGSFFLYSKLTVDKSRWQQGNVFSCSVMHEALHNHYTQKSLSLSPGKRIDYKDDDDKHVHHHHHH
Protocol: as §1

RON-ECD-Fc [5] = biological target: T1, RON-ECD-Fc; assay: ELISA, coated ECD-Fc, antibody 2.143 ng/mL
Protocol: as §1

B1: C8-6 (antibody, human IgG2, kappa, V domains shown)
VH: QVQLVQSGAEVKKPGASVKVSCKASGYTFTDYYMHWVRQAPGQGLEWMGRVNPNRGGTTYNQKFEGRVTMTTDTSTSTAYMELRSLRSDDTAVYYCARTNWLDYWGQGTTVTVSS
VL: DIQMTQSPSSLSASVGDRVTITCSVSSSVSSIYLHWYQQKPGKAPKLLIYSTSNLASGVPSRFSGSGSGTDFTLTISSLQPEDFATYYCIQYSGYPLTFGGGTKVEIKR
notes: Called IgG4, kappa; also called Mab C8-6
Average A450 nm (RON-ECD-Fc [1]): 0.09 A450 nm | Average A450 nm (PlexinA2-ECD-Fc [2]): 0.107 A450 nm | Average A450 nm (RON-ECD-Fc [3]): 0.08 A450 nm | Average A450 nm (PlexinA2-ECD-Fc [4]): 0.106 A450 nm | Average A450 nm (Human c-Met-Flis-Fc ECD): 2.42 A450 nm | Average A450 nm (RON-ECD-Fc [5]): 0.098 A450 nm
